The target of assay [1] is TGFβ receptor on mink lung epithelial cells (MLEC-TGFβ, PAI-1 promoter luciferase reporter) (mink). In words: cell-based or functional assay.
For assay [2], the target named is TGFβ receptor II (TGFβRII) on IMR90 human lung fibroblasts (human) (UniProt P37173). In words: cell-based or functional assay.

The text below walks through data of US20170190778A1.

TGFβ receptor II (TGFβRII) on IMR90 human lung fibroblasts (human), sequence (P37173 23-567): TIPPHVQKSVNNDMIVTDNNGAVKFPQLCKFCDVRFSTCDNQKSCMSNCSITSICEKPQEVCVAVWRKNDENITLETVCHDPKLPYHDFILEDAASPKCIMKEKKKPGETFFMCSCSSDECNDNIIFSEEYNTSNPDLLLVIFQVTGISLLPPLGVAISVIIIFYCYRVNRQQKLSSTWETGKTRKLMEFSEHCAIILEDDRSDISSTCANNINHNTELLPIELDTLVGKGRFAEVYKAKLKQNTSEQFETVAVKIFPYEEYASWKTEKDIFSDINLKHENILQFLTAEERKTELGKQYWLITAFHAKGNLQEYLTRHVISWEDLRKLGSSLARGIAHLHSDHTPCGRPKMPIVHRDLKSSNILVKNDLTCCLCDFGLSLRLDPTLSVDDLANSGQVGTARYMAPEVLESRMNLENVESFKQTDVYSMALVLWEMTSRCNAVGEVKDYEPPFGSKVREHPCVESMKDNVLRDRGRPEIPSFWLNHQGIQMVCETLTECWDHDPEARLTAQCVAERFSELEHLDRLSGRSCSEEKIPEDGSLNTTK

As to “N-terminal Tsp repeat domain of mouse ACLP (amino acids 26-373, C-terminal myc-His tag) (from UniProt Q640N1 26-373) (ligand)”, the luciferase activity (PAI-1 promoter reporter in MLEC cells) in assay [1] amounted to 5 µg/mL. Besides, the Smad3 phosphorylation in IMR90 cells (Western blot, 30 min) in assay [2] came out at 30 nM.

In assay [1], “C-terminal discoidin and carboxypeptidase domains of mouse ACLP (amino acids 374-1128, C-terminal myc-His tag) (from UniProt Q640N1 374-1128)” displayed a luciferase activity (PAI-1 promoter reporter in MLEC cells) of 25 µg/mL. The same substance gave an SMA and collagen protein expression in IMR90 cells (48 h) in assay [2] of 30 nM.
